Experimental data reported in US20180328929A1 (BIOMERIEUX, published 2018).
Residue numbers refer to the chain shown, from its start.

B1: ORF2-MUT (ORF2 amino acids 394-660 with cysteines 627, 630 and 638 changed to serine, N-terminal 8-his tag) (other)
chain: HHHHHHHHQLFYSRPVVSANGEPTVKLYTSVENAQQDKGIAIPHDIDLGESRVVIQDYDNQHEQDRPTPSPAPSRPFSVLRANDVLWLSLTAAEYDQSTYGSSTGPVYVSDSVTLVNVATGAQAVARSLDWTKVTLDGRPLSTTQQYSKTFFVLPLRGKLSFWEAGTTKAGYPYNYNTTASDQLLVENAAGHRVAISTYTTSLGAGPVSISAVAVLAPHSALALLEDTMDYPARAHTFDDFSPESRPLGLQGSAFQSTVAELQRLKMKVGKTREL
notes: Made in E. coli; also called p-ORF2-MUT; construction according to the invention
B2: ORF2-REF (ORF2 amino acids 394-660 of hepatitis E virus isolate Human/China/HeBei/1987, N-terminal 8-his tag) (other)
chain: B1 chain with S242C, S245C, S253C
notes: Made in E. coli, dissolved from inclusion bodies in urea, Ni-NTA purified, dialyzed; Heterogeneous: covalent dimers (major form), non-covalent dimers, high-molecular-weight forms and aggregates; also called p-ORF2.1 polypeptide

Key:
[1] = biological target: the molecule itself; assay: SDS-PAGE, non-heated (self-association)
[2] = biological target: the molecule itself; assay: SDS-PAGE (self-association)

Row | Protein | binding result [1] | binding result [2]
1 | B1 | binds | 
2 | B2 |  | binds
